# Experimental data: the supplement of paper PMC11316812
# ± gives the standard deviation of the averaged measurements.
# How the values were obtained:
# hTERT-HMEC = test: percentage of EdU-negative (G0-arrested) nuclei per well, 72 h; higher = more G0 arrest; conditions: reference: sequence is the full UniProt precursor, the tested protein was the secreted form or ectodomain
# MCF7 = test: as above; conditions: reference: sequence is the full UniProt precursor, the tested protein was the secreted form or ectodomain
# [1] = protein concentration 0.0225 µM
# [2] = protein concentration 0.0085 µM
# 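Note: secreted proteins added to cultured cells, EdU pulse at the end, nuclei found by Hoechst imaging, EdU status from nuclear versus surrounding ring intensity ratio, PBS as neutral control.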
Sequence,percentage of EdU-negative (hTERT-HMEC; [1]) [%],percentage of EdU-negative (hTERT-HMEC; protein concentration 0.225 µM) [%],percentage of EdU-negative (MCF7; [1]) [%],percentage of EdU-negative (MCF7; protein concentration 0.225 µM) [%],percentage of EdU-negative (hTERT-HMEC; [2]) [%],percentage of EdU-negative (hTERT-HMEC; protein concentration 0.085 µM) [%],percentage of EdU-negative (MCF7; [2]) [%],percentage of EdU-negative (MCF7; protein concentration 0.085 µM) [%]
MEGAGPRGAGPARRRGAGGPPSPLLPSLLLLLLLWMLPDTVAPQELNPRGRNVCRAPGSQVPTCCAGWRQQGDECGIAVCEGNSTCSENEVCVRPGECRCRHGYFGANCDTKCPRQFWGPDCKELCSCHPHGQCEDVTGQCTCHARRWGARCEHACQCQHGTCHPRSGACRCEPGWWGAQCASACYCSATSRCDPQTGACLCHAGWWGRSCNNQCACNSSPCEQQSGRCQCRERTFGARCDRYCQCFRGRCHPVDGTCACEPGYRGKYCREPCPAGFYGLGCRRRCGQCKGQQPCTVAEGRCLTCEPGWNGTKCDQPCATGFYGEGCSHRCPPCRDGHACNHVTGKCTRCNAGWIGDRCETKCSNGTYGEDCAFVCADCGSGHCDFQSGRCLCSPGVHGPHCNVTCPPGLHGADCAQACSCHEDTCDPVTGACHLETNQRKGVMGAGALLVLLVCLLLSLLGCCCACRGKDPTRRPRPRRELSLGRKKAPHRLCGRFSRISMKLPRIPLRRQKLPKVVVAHHDLDNTLNCSFLEPPSGLEQPSPSWSSRASFSSFDTTDEGPVYCVPHEEAPAESRDPEVPTVPAEAPAPSPVPLTTPASAEEAIPLPASSDSERSASSVEGPGGALYARVARREARPARARGEIGGLSLSPSPERRKPPPPDPATKPKVSWIHGKHSAAAAGRAPSPPPPGSEAAPSPSKRKRTPSDKSAHTVEHGSPRTRDPTPRPPGLPEEATALAAPSPPRARARGRGPGLLEPTDAGGPPRSAPEAASMLAAELRGKTRSLGRAEVALGAQGPREKPAPPQKAKRSVPPASPARAPPATETPGPEKAATDLPAPETPRKKTPIQKPPRKKSREAAGELGRAGAPTL [Q96GP6],3.85 ± 0.62,18.5 ± 6.1,25.7 ± 1.2,36.9 ± 0.76,–,–,–,–
MERASLIQKAKLAEQAERYEDMAAFMKGAVEKGEELSCEERNLLSVAYKNVVGGQRAAWRVLSSIEQKSNEEGSEEKGPEVREYREKVETELQGVCDTVLGLLDSHLIKEAGDAESRVFYLKMKGDYYRYLAEVATGDDKKRIIDSARSAYQEAMDISKKEMPPTNPIRLGLALNFSVFHYEIANSPEEAISLAKTTFDEAMADLHTLSEDSYKDSTLIMQLLRDNLTLWTADNAGEEGGEAPQEPQS,4.93 ± 0.53,5.22 ± 0.073,25.3 ± 4.8,20.9 ± 1.9,–,–,–,–
MWAGLLLRAACVALLLPGAPARGYTGRKPPGHFAAERRRLGPHVCLSGFGSGCCPGWAPSMGGGHCTLPLCSFGCGSGICIAPNVCSCQDGEQGATCPETHGPCGEYGCDLTCNHGGCQEVARVCPVGFSMTETAVGIRCTDIDECVTSSCEGHCVNTEGGFVCECGPGMQLSADRHSCQDTDECLGTPCQQRCKNSIGSYKCSCRTGFHLHGNRHSCVDVNECRRPLERRVCHHSCHNTVGSFLCTCRPGFRLRADRVSCEAFPKAVLAPSAILQPRQHPSKMLLLLPEAGRPALSPGHSPPSGAPGPPAGVRTTRLPSPTPRLPTSSPSAPVWLLSTLLATPVPTASLLGNLRPPSLLQGEVMGTPSSPRGPESPRLAAGPSPCWHLGAMHESRSRWTEPGCSQCWCEDGKVTCEKVRCEAACSHPIPSRDGGCCPSCTGCFHSGVVRAEGDVFSPPNENCTVCVCLAGNVSCISPECPSGPCQTPPQTDCCTCVPVRCYFHGRWYADGAVFSGGGDECTTCVCQNGEVECSFMPCPELACPREEWRLGPGQCCFTCQEPTPSTGCSLDDNGVEFPIGQIWSPGDPCELCICQADGSVSCKRTDCVDSCPHPIRIPGQCCPDCSAGCTYTGRIFYNNETFPSVLDPCLSCICLLGSVACSPVDCPITCTYPFHPDGECCPVCRDCNYEGRKVANGQVFTLDDEPCTRCTCQLGEVSCEKVPCQRACADPALLPGDCCSSCPDSLSPLEEKQGLSPHGNVAFSKAGRSLHGDTEAPVNCSSCPGPPTASPSRPVLHLLQLLLRTNLMKTQTLPTSPAGAHGPHSLALGLTATFPGEPGASPRLSPGPSTPPGAPTLPLASPGAPQPPPVTPERSFSASGAQIVSRWPPLPGTLLTEASALSMMDPSPSKTPITLLGPRVLSPTTSRLSTALAATTHPGPQQPPVGASRGEESTM [Q96DN2],–,–,–,–,4.9939 ± 0.0014,5.36 ± 0.4,25.5 ± 1.1,26.4 ± 1.8
MAAALFVLLGFALLGTHGASGAAGFVQAPLSQQRWVGGSVELHCEAVGSPVPEIQWWFEGQGPNDTCSQLWDGARLDRVHIHATYHQHAASTISIDTLVEEDTGTYECRASNDPDRNHLTRAPRVKWVRAQAVVLVLEPGTVFTTVEDLGSKILLTCSLNDSATEVTGHRWLKGGVVLKEDALPGQKTEFKVDSDDQWGEYSCVFLPEPMGTANIQLHGPPRVKAVKSSEHINEGETAMLVCKSESVPPVTDWAWYKITDSEDKALMNGSESRFFVSSSQGRSELHIENLNMEADPGQYRCNGTSSKGSDQAIITLRVRSHLAALWPFLGIVAEVLVLVTIIFIYEKRRKPEDVLDDDDAGSAPLKSSGQHQNDKGKNVRQRNSS,5.59 ± 0.91,5.94 ± 1.8,22.7 ± 2.4,25.2 ± 1.3,–,–,–,–
